Reference: patent US20140274782A1, “AFFINITY REAGENTS AND METHODS FOR DETECTION, PURIFICATION, AND PROTEOMIC ANALYSIS OF METHYLATED PROTEINS” (The Board of Trustees of the Leland Stanford Junior …, priority 2013, published 2014)

Experiments:
[1] = biological target: T1, mono- and di-methylated lysine peptides (H4K20, p53K382 and other histone and non-histone peptides) (Homo sapiens, UniProt Q9Y468); assay: Peptide pull-down assay with biotinylated peptides, Western blot; type: binding
T1 construct: made in house; host or cells: E. coli
T1 sequence (Q9Y468 258-598): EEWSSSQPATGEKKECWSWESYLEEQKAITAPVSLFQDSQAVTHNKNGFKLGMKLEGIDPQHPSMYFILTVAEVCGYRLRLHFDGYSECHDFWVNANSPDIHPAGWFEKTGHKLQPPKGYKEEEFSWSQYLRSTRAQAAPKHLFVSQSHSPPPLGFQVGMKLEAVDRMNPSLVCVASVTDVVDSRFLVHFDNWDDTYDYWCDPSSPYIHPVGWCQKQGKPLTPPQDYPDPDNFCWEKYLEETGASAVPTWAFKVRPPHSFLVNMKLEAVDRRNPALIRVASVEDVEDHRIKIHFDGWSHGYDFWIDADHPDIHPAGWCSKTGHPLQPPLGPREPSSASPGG
Procedure: (§1) Peptide pull-down assays were performed as previously described (Shi et al. (2006) Nature 442, 96-99), using 1 μg protein and 1 μg peptide per condition in binding buffer (50 mM Tris pH 7.5, 150 mM NaCl, 0.05% NP-40). Peptide arrays were performed as previously described (Bua et al., supra).

[2] = system: mono- and di-methylated lysine peptides (H4K20, p53K382 and other histone and non-histone peptides); assay: as above; type: binding; conditions: GST fusions, FIG. 1B
Procedure: as §1

[3] = biological target: T2, over 100 distinct histone and non-histone peptides with different post-translational modifications (Homo sapiens, UniProt Q9Y468); assay: Peptide array probed with GST-3×MBT; type: binding; conditions: FIG. 1E
T2 construct: made in house; host or cells: E. coli
T2 sequence (Q9Y468 258-598): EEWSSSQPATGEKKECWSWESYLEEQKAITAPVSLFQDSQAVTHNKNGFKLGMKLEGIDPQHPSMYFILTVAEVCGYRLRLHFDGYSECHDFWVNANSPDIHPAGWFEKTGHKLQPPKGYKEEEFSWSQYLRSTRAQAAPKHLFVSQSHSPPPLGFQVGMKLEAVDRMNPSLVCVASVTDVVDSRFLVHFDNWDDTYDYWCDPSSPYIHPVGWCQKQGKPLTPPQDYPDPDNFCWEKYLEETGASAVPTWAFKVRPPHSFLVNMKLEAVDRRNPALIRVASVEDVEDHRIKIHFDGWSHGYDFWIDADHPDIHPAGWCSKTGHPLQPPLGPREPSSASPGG
Procedure: as §1

[4] = system: methylated histones (HeLa nucleosomes, calf thymus histones), p53K382me1, H3K9me2; assay: Far Western assay; type: binding
Procedure: For Far Western assays, proteins were separated by SDS-PAGE and transferred to a PVDF membrane. Following blocking, membranes were incubated overnight with the indicated domain. Domain binding was determined using an epitope tag-specific antibody and appropriate HRP-conjugated secondary antibody.
For Far Western assays on purified HeLa nucleosomes and calf thymus histones, the indicated amounts of nucleosome or histone were separated by SDS-PAGE and transferred to a PVDF membrane. The membrane was blocked in milk prepared with Tris-buffered saline with 0.1% Tween (TBST). Membranes were incubated overnight at 4° C. with 1 μg/ml of the indicated domain in TBST. Domain binding was determined using an epitope tag-specific antibody and appropriate HRP-conjugated secondary antibody.
For the SET8/p53 Far Westerns, p53 was methylated in vitro as previously described (Kuo et al., 2011), with 5 μg enzyme and 1 μg substrate per 25 μl of reaction volume incubated at 30° C. overnight. Following the methylation reaction, PreScission Protease was added directly to the reaction mix and samples were incubated overnight at 4° C. Blotting was conducted as described above. G9a SET domain/recombinant H3 (New England BioLabs) samples were prepared similarly, without a GST cleavage step.

[5] = system: methylated proteins (H3, p53, RelA, SIRT1) in HeLa / 293T nuclear extract; assay: Protein pull-down from nuclear extract with GSH-Sepharose coupled domain, Western blot; type: binding
Procedure: GSH-Sepharose coupled domain beads were generated for pull-down by incubating GSHSepharose resin with E. coli lysate containing sufficient 3×MBT for bead saturation. Bead-coupled 3×MBT was incubated with nuclear extract overnight and proteins that precipitated with the resin were analyzed by SDS-PAGE.
Recombinant GST-SIRT1 was expressed by baculoviral transduction of the Sf9 insect cell line as previously described (Levy et al. (2011) Nat. Immunol. 12, 29-36). A panel of enzymes was tested for ability to methylate recombinant SIRT1 using ^3H-SAM in in vitro methylation reactions (Kuo et al. (2011) Mol. Cell 44, 609-620). SIRT1K622R was generated by site-directed mutagenesis (Stratagene). For the pull-down experiment, 293T cells were transfected with a 10:1 enzyme:substrate DNA ratio. 150 μg of nuclear proteins were used for pull-downs with 3×MBT or 3×MBTD355N coupled GSH-Sepharose as described above.
GSH-Sepharose coupled domain beads were prepared for pull-down by expressing the domain in E. coli. Cells were lysed as described, and lysate was incubated overnight at 4° C. with GSH-Sepharose with a sufficient lysate-to-Sepharose ratio to result in Sepharose binding saturation. The GSH-Sepharose was then washed 3×5 minutes in binding buffer and resuspended in binding buffer to 50% slurry. 150 μg of nuclear proteins were incubated overnight at 4° C. with 15 μl 50% slurry of either 3×MBT or 3×MBTD355N coupled to GSH-Sepharose in binding buffer (total volume of about 150 μl). Beads were washed 3×5 minutes in 0.5 ml of binding buffer. Beads were boiled in 25 μl of 2× Laemmli buffer and supernatant was analyzed by SDS-PAGE and Western blotting.
For SETD6/RelA and SET8/p53 pull-down experiments, 293T cells were transfected with a 1:1 enzyme:substrate DNA ratio. 150 μg of nuclear proteins were incubated overnight at 4° C. with 15 μl 50% slurry of either 3×MBT or 3×MBTD355N coupled to GSH-Sepharose in binding buffer. […] Laemmli buffer was added to the supernatant to 1×, and the resulting samples analyzed by SDS-PAGE and Western blotting.

G9a SET domain = biological target: T3, G9a SET domain (Homo sapiens, UniProt Q96KQ7); assay: ProtoArray on-chip in vitro methylation, detected with 3xFlag-3xMBT; type: biochemical; conditions: ProtoArrays bearing 9,500 recombinant human proteins
T3 construct: 50 μg of GST or recombinant GSTtagged G9a SET domain and the cofactor SAM
Procedure: The assay was conducted as previously described (Levy et al. (2011) Epigenetics Chromatin 4, 19). Briefly, a ProtoArray (Invitrogen, version 5.0) was incubated overnight with 50 μg of GST or recombinant GSTtagged G9a SET domain and the cofactor SAM.
Arrays were analyzed using GenePix Pro 6.1 software (Molecular Devices) and feature values were assigned to proteins using the array list provided by Invitrogen. We designated the following criteria for “hits”: GST array signal-to-noise ratio (SNR) less than or equal to 1.5, G9a array SNR greater than or equal to 10, and a difference between the G9a array SNR and the GST array SNR of greater than or equal to 12. Hits were individually visually validated. Proteins were removed from the list of potential substrates if irregular array features appeared to interfere with the array spots or SNR calculations.

T3 sequence (Q96KQ7 1038-1155 limits assumed): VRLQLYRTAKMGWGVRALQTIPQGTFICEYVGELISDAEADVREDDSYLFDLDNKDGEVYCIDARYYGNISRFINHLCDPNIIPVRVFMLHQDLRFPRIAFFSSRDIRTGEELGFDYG

B1: 3×MBT: three MBT repeats of L3MBTL1 (amino acids 190-530 of accession NP—056293.4), expressed as GST or Flag fusion; methyl-lysine affinity reagent (protein)
chain: EEWSSSQPATGEKKECWSWESYLEEQKAITAPVSLFQDSQAVTHNKNGFKLGMKLEGIDPQHPSMYFILTVAEVCGYRLRLHFDGYSECHDFWVNANSPDIHPAGWFEKTGHKLQPPKGYKEEEFSWSQYLRSTRAQAAPKHLFVSQSHSPPPLGFQVGMKLEAVDRMNPSLVCVASVTDVVDSRFLVHFDNWDDTYDYWCDPSSPYIHPVGWCQKQGKPLTPPQDYPDPDNFCWEKYLEETGASAVPTWAFKVRPPHSFLVNMKLEAVDRRNPALIRVASVEDVEDHRIKIHFDGWSHGYDFWIDADHPDIHPAGWCSKTGHPLQPPLGPREPSSASPGG
modifications: left off: a dimerising Fc or GST
- binding to non-methylated peptides ([1]; FIG. 1D): does not bind
- binding to tri-methylated peptides ([1]; FIG. 1D): binds very weakly
- effect of acetylation of a neighboring lysine and phosphorylation of an N-terminally adjacent serine on binding ([1]; FIG. 2E): did not affect
- effect of phosphorylation on a C-terminally adjacent serine on binding to mono- or di-methylated lysine ([1]; FIGS. 2A and 2B): decreased, but did not eliminate
- effect of arginine methylation one or two residues removed from the lysine methylation site on binding ([1]; FIGS. 2C and 2D): little effect
- co-precipitation with panel of mono- and di-methylated peptides ([1]; histone and nonhistone peptides, FIG. 1C): co-precipitates with thirteen different mono- and di-methylated peptides
- binding to mono- and di-methylated H4K20- and p53K382-containing peptides [2]: binds
- binding to unmodified peptides, tri-methylated lysine peptides or peptides with other PTMs on peptide array [3]: did not bind
- number of peptides containing mono- and di-methylated lysine bound on peptide array ([3]; array of over 100 unique peptides): 41
- Far Western detection of recombinant H3 dimethylated at lysine 9 (H3K9me2) by G9a SET domain [4]: specifically detects
- Far Western detection of recombinant p53 mono-methylated at lysine 382 by SET8 [4]: detected
- Far Western detection of histones ([4]; purified HeLa nucleosomes and calf thymus histones): detected
- precipitation of 3× Flag-SIRT1 ([5]; 293T cells, only when G9a is co-expressed and K622 is intact): specifically precipitated
- precipitation of methylated proteins H3 and p53 ([5]; HeLa nuclear extract): precipitates
- precipitation of methylated RelA ([5]; nuclear extract of 293T cells co-expressing SETD6 and RelA): precipitates
- number of proteins detected on the G9a-methylated array but not on the control array (G9a SET domain): 112
